Measured values: publication PMC6510891, “Functional duplication of Rap1 in methylotrophic yeasts”

What was measured:
HpRap1A [1] = molecular target: T1, HpRap1A (Hansenula polymorpha DL-1, UniProt W1Q7Z6 1-613); experiment: SPR; kinetic fit; equilibrium Kd 1.8±0.5; SPR: 10 mM HEPES-NaOH pH 7.5, 150 mM NaCl, 0.5 mM DTT, 0.05% Tween 20, 1 mg/ml BSA, 0.02 mg/ml salmon sperm DNA; competition 2 nM protein with 20 or 200 nM competitor. EMSA: 20 mM HEPES-NaOH pH 7.5, 50 mM NaCl, 0.2 mg/ml BSA, 5% glycerol, 0.1 mg/ml salmon sperm DNA, room temperature; settings: protein: recombinant; 3' overhang 20 nt on strand 2
T1 sequence: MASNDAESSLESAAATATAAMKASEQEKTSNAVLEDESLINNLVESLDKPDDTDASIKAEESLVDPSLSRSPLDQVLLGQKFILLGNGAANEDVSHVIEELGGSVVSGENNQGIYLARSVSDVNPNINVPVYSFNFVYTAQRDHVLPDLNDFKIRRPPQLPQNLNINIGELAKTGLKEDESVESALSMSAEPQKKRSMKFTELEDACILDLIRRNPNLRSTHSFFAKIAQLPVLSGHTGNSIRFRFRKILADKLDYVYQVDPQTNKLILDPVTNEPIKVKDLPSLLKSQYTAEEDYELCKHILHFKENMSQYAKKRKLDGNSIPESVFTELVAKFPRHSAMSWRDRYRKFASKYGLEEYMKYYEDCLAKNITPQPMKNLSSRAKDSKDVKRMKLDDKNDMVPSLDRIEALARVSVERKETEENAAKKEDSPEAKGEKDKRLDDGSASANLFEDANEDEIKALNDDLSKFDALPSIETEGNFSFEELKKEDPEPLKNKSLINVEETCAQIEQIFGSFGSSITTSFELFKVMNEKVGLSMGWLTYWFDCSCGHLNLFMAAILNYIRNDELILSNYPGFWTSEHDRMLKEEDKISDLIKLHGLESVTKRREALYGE

HpRap1B [2] = molecular target: T2, HpRap1B (Hansenula polymorpha DL-1, UniProt W1QDN2 1-576); experiment: SPR; kinetic fit; equilibrium Kd 1.9±0.1; SPR: 10 mM HEPES-NaOH pH 7.5, 150 mM NaCl, 0.5 mM DTT, 0.05% Tween 20, 1 mg/ml BSA, 0.02 mg/ml salmon sperm DNA; competition 2 nM protein with 20 or 200 nM competitor. EMSA: 20 mM HEPES-NaOH pH 7.5, 50 mM NaCl, 0.2 mg/ml BSA, 5% glycerol, 0.1 mg/ml salmon sperm DNA, room temperature; settings: protein: recombinant; 3' overhang 20 nt on strand 2
T2 sequence: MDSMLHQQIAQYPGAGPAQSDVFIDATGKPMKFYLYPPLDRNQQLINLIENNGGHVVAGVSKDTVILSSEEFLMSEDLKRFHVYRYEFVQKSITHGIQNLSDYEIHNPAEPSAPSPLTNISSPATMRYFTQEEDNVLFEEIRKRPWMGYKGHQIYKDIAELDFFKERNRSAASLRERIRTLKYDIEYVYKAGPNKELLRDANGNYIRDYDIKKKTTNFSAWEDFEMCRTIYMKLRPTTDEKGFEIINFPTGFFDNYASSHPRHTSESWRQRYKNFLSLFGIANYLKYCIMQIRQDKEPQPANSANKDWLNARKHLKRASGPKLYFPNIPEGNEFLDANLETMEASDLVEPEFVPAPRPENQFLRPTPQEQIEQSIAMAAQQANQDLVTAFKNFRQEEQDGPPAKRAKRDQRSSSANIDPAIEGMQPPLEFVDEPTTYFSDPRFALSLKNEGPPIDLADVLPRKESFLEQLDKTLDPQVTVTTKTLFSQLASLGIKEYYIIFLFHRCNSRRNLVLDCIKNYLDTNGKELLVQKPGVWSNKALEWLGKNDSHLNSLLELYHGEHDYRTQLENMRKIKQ

HpRap1B [3] = molecular target: T2, HpRap1B; experiment: SPR; SPR: 10 mM HEPES-NaOH pH 7.5, 150 mM NaCl, 0.5 mM DTT, 0.05% Tween 20, 1 mg/ml BSA, 0.02 mg/ml salmon sperm DNA; competition 2 nM protein with 20 or 200 nM competitor. EMSA: 20 mM HEPES-NaOH pH 7.5, 50 mM NaCl, 0.2 mg/ml BSA, 5% glycerol, 0.1 mg/ml salmon sperm DNA, room temperature; settings: protein: recombinant; 3' overhang 20 nt on strand 2
HpRap1A [4] = molecular target: T1, HpRap1A; experiment: SPR; kinetic fit; equilibrium Kd 12±3; SPR: 10 mM HEPES-NaOH pH 7.5, 150 mM NaCl, 0.5 mM DTT, 0.05% Tween 20, 1 mg/ml BSA, 0.02 mg/ml salmon sperm DNA; competition 2 nM protein with 20 or 200 nM competitor. EMSA: 20 mM HEPES-NaOH pH 7.5, 50 mM NaCl, 0.2 mg/ml BSA, 5% glycerol, 0.1 mg/ml salmon sperm DNA, room temperature; settings: protein: recombinant; 3' overhang 20 nt on strand 2
HpRap1A [5] = molecular target: T1, HpRap1A; experiment: SPR; SPR: 10 mM HEPES-NaOH pH 7.5, 150 mM NaCl, 0.5 mM DTT, 0.05% Tween 20, 1 mg/ml BSA, 0.02 mg/ml salmon sperm DNA; competition 2 nM protein with 20 or 200 nM competitor. EMSA: 20 mM HEPES-NaOH pH 7.5, 50 mM NaCl, 0.2 mg/ml BSA, 5% glycerol, 0.1 mg/ml salmon sperm DNA, room temperature; settings: protein: recombinant; 3' overhang 20 nt on strand 2
HpRap1B [6] = molecular target: T2, HpRap1B; experiment: SPR; kinetic fit; equilibrium Kd 11±1; SPR: 10 mM HEPES-NaOH pH 7.5, 150 mM NaCl, 0.5 mM DTT, 0.05% Tween 20, 1 mg/ml BSA, 0.02 mg/ml salmon sperm DNA; competition 2 nM protein with 20 or 200 nM competitor. EMSA: 20 mM HEPES-NaOH pH 7.5, 50 mM NaCl, 0.2 mg/ml BSA, 5% glycerol, 0.1 mg/ml salmon sperm DNA, room temperature; settings: protein: recombinant; 3' overhang 20 nt on strand 2
HpRap1B [7] = molecular target: T2, HpRap1B; experiment: SPR; kinetic fit; equilibrium Kd 1.7±0.2; SPR: 10 mM HEPES-NaOH pH 7.5, 150 mM NaCl, 0.5 mM DTT, 0.05% Tween 20, 1 mg/ml BSA, 0.02 mg/ml salmon sperm DNA; competition 2 nM protein with 20 or 200 nM competitor. EMSA: 20 mM HEPES-NaOH pH 7.5, 50 mM NaCl, 0.2 mg/ml BSA, 5% glycerol, 0.1 mg/ml salmon sperm DNA, room temperature; settings: protein: recombinant; 3' overhang 20 nt on strand 2
HpRap1A [8] = molecular target: T1, HpRap1A; experiment: SPR; kinetic fit; equilibrium Kd 38±15; SPR: 10 mM HEPES-NaOH pH 7.5, 150 mM NaCl, 0.5 mM DTT, 0.05% Tween 20, 1 mg/ml BSA, 0.02 mg/ml salmon sperm DNA; competition 2 nM protein with 20 or 200 nM competitor. EMSA: 20 mM HEPES-NaOH pH 7.5, 50 mM NaCl, 0.2 mg/ml BSA, 5% glycerol, 0.1 mg/ml salmon sperm DNA, room temperature; settings: protein: recombinant; 3' overhang 20 nt on strand 2
HpRap1A [9] = molecular target: T1, HpRap1A; experiment: competition SPR; score - vs VIIrAbs surface; SPR: 10 mM HEPES-NaOH pH 7.5, 150 mM NaCl, 0.5 mM DTT, 0.05% Tween 20, 1 mg/ml BSA, 0.02 mg/ml salmon sperm DNA; competition 2 nM protein with 20 or 200 nM competitor. EMSA: 20 mM HEPES-NaOH pH 7.5, 50 mM NaCl, 0.2 mg/ml BSA, 5% glycerol, 0.1 mg/ml salmon sperm DNA, room temperature; settings: protein: recombinant; blunt
HpRap1B [10] = molecular target: T2, HpRap1B; experiment: competition SPR; score +++ vs PICKU surface; SPR: 10 mM HEPES-NaOH pH 7.5, 150 mM NaCl, 0.5 mM DTT, 0.05% Tween 20, 1 mg/ml BSA, 0.02 mg/ml salmon sperm DNA; competition 2 nM protein with 20 or 200 nM competitor. EMSA: 20 mM HEPES-NaOH pH 7.5, 50 mM NaCl, 0.2 mg/ml BSA, 5% glycerol, 0.1 mg/ml salmon sperm DNA, room temperature; settings: protein: recombinant; blunt
HpRap1A [11] = molecular target: T1, HpRap1A; experiment: SPR; kinetic fit; SPR: 10 mM HEPES-NaOH pH 7.5, 150 mM NaCl, 0.5 mM DTT, 0.05% Tween 20, 1 mg/ml BSA, 0.02 mg/ml salmon sperm DNA; competition 2 nM protein with 20 or 200 nM competitor. EMSA: 20 mM HEPES-NaOH pH 7.5, 50 mM NaCl, 0.2 mg/ml BSA, 5% glycerol, 0.1 mg/ml salmon sperm DNA, room temperature; settings: protein: recombinant; 3' overhang 20 nt on strand 2
HpRap1B [12] = molecular target: T2, HpRap1B; experiment: SPR; kinetic fit; equilibrium Kd 65±2; SPR: 10 mM HEPES-NaOH pH 7.5, 150 mM NaCl, 0.5 mM DTT, 0.05% Tween 20, 1 mg/ml BSA, 0.02 mg/ml salmon sperm DNA; competition 2 nM protein with 20 or 200 nM competitor. EMSA: 20 mM HEPES-NaOH pH 7.5, 50 mM NaCl, 0.2 mg/ml BSA, 5% glycerol, 0.1 mg/ml salmon sperm DNA, room temperature; settings: protein: recombinant; 3' overhang 20 nt on strand 2
HpRap1A [13] = molecular target: T1, HpRap1A; experiment: EMSA; up to 250 nM protein, 50 nM DNA; SPR: 10 mM HEPES-NaOH pH 7.5, 150 mM NaCl, 0.5 mM DTT, 0.05% Tween 20, 1 mg/ml BSA, 0.02 mg/ml salmon sperm DNA; competition 2 nM protein with 20 or 200 nM competitor. EMSA: 20 mM HEPES-NaOH pH 7.5, 50 mM NaCl, 0.2 mg/ml BSA, 5% glycerol, 0.1 mg/ml salmon sperm DNA, room temperature; settings: protein: recombinant; label: 5' FAM on strand 1; blunt
HpRap1B [14] = molecular target: T2, HpRap1B; experiment: as above; settings: protein: recombinant; label: 5' FAM on strand 1; blunt

B1: RPL5a (dsDNA)
DNA 1: CTTGTGTGGTGCAGGGGTGGCAG
DNA 2: CTGCCACCCCTGCACCACACAAGCCTCTACGTCCTCCTGCTCC
- Kd (HpRap1A [1]): 1.4 ± 0.3 nM
- Kd (HpRap1B [2]): 2 nM

B2: RPS0a (dsDNA)
DNA 1: AGAGGGCTGTGCACGGATGCTAT
DNA 2: ATAGCATCCGTGCACAGCCCTCTCCTCTACGTCCTCCTGCTCC
- binding result (HpRap1B [3]): no binding
- Kd (HpRap1A [4]): 10 ± 4 nM

B3: HANPO2 (SPR) (dsDNA)
DNA 1: GGGTGGCGGGGTGGCG
DNA 2: CGCCACCCCGCCACCCCCTCTACGTCCTCCTGCTCC
- binding result (HpRap1A [5]): no binding
- Kd (HpRap1B [6]): 12 ± 1 nM

B4: RPS0b (dsDNA)
DNA 1: ATTTCTTGGTGCGAGGGGGCTCT
DNA 2: AGAGCCCCCTCGCACCAAGAAATCCTCTACGTCCTCCTGCTCC
- binding result (HpRap1A [5]): no binding
- Kd (HpRap1B [7]): 1.5 ± 0.4 nM

B5: SACCE (SPR) (dsDNA)
DNA 1: GTGTGTGGGTGTGTGGGTGTGTG
DNA 2: CACACACCCACACACCCACACACCCTCTACGTCCTCCTGCTCC
- Kd (HpRap1A [8]): 39 ± 15 nM

B6: PICKU (competitor) (dsDNA)
DNA 1: TGAACTAGGAGCGAGGTGTGTTAC
DNA 2: GTAACACACCTCGCTCCTAGTTCA
- binding result (HpRap1A [9]): no binding
- binding result (HpRap1B [10]): binds

B7: VIIrAbs (SPR) (dsDNA)
DNA 1: GGCAGGCGGTGTAGGGATGCGGC
DNA 2: GCCGCATCCCTACACCGCCTGCCCCTCTACGTCCTCCTGCTCC
- Kd (HpRap1A [11]): 0.28 ± 0.09 nM
- Kd (HpRap1B [12]): 64 ± 2 nM

B8: FAM-HANPO2 (dsDNA)
DNA 1: GGGTGGCGGGGTGGCG
DNA 2: CGCCACCCCGCCACCC
- binding result (HpRap1A [13]): no binding
- binding result (HpRap1B [14]): binds
